Legend:
[1] = target: ZV54^CHO (CHO cell-derived ZV54 mAb); assay: SPR; conditions: remark: other sources report otherwise
[2] = target: ZV54^ΔXF (ZV54 mAb expressed in glycoengineered ΔXF N. benthamiana plants); assay: SPR; conditions: remark: other sources report otherwise

B1: recombinant human FcγRIIA ectodomain, P12318 34-217 (receptor)
chain: QAAAPPKAVLKLEPPWINVLQEDSVTLTCQGARSPESDSIQWFHNGNLIPTHTQPSYRFKANNNDSGEYTCQTGQTSLSDPVHLTVLSEWLVLQTPHLEFQEGETIMLRCHSWKDKPLVKVTFFQNGKSQKFSHLDPTFSIPQANHSHSGDYHCTGNIGYTLFSSKPVTITVQVPSMGSSSPMG
modifications: not checked
[1]
  Kd: 662 nM
[2]
  Kd: 1890 nM

— PMC10221487
